# In patent US20120213844A1 (ALZA, published 2012):
# Positions of bridges follow the written chain, without caps; N, C: chain ends. No end group written: not given here.
# B1: P190-DOXIL (peptide)
# peptide: DPCTWEVWGRECLQ
# modifications: disulfide 3-12 (inferred); not fully specified (N-terminus); also: inserted into doxorubicin-loaded liposomes
# B2: P190-MMB construct 4316 (Fc fusion)
# chain: GGDPCTWEVWGRECLQGGGGSGGGGSGGGGSGGGGSCPPCPAPEAAGGPSVFLFPPKPKDTLMISRTPEVTCVVVDVSQEDPEVQFNWYVDGVEVHNAKTKPREEQFNSTYRVVSVLTVLHQDWLNGKEYKCKVSNKGLPSSIEKTISKAKGQPREPQVYTLPPSQEEMTKNQVSLTCLVKGFYPSDIAVEWESNGQPENNYKTTPPVLDSDGSFFLYSRLTVDKSRWQEGNVFSCSVMHEALHNHYTQKSLSLSLGK
# notes: Human IgG4 hinge-CH2-CH3 with two Leu to Ala
# B3: phage displaying P190 on pIX (SEQ ID NO: 55) (peptide)
# chain: GGGDPCTWEVWGRECLQGGGSGGSGG
# notes: pIX phagemid display, library S18; on average one peptide per particle; also called PHPEP190; pIX-190; not shown: M13 phage coat protein pIX (MSVL...)
# B4: phage clone P176 (SEQ ID NO: 48) (peptide)
# chain: GGGKTCVSTTFDLWFVCFAGGGSGGSGG
# notes: pIX phagemid display, library S20; also called PP176; not shown: M13 phage coat protein pIX (MSVL...)
# B5: phage clone displaying SEQ ID NO: 16 (S15 hit) (peptide)
# chain: GGGSTITSLPTLQCWPILGGGSGGSGG
# notes: pIX phagemid display, library S15; not shown: M13 phage coat protein pIX (MSVL...)
# B6: phage clone P175 (SEQ ID NO: 13) (peptide)
# chain: GGGLPDDSLPELICKVRGGGGSGGSGG
# notes: pIX phagemid display, library S15; also called PP175; not shown: M13 phage coat protein pIX (MSVL...)
# B7: phage clone displaying SEQ ID NO: 15 (S15 hit) (peptide)
# chain: GGGNWFSLPTLLCFPLNPGGGSGGSGG
# notes: as for B5
# B8: phage clone displaying SEQ ID NO: 14 (S15 hit) (peptide)
# chain: GGGHVSLQSLPELICVVSGGGSGGSGG
# notes: as for B5
# B9: phage clone displaying SEQ ID NO: 20 (S15 hit) (peptide)
# chain: GGGTVFTLPELVCVVAGTGGGSGGSGG
# notes: as for B5
# B10: phage clone displaying SEQ ID NO: 12 (S15 hit) (peptide)
# chain: GGGVSGILPILVCHPAATGGGSGGSGG
# notes: as for B5
# B11: phage clone displaying SEQ ID NO: 19 (S15 hit) (peptide)
# chain: GGGGADTLPDLLCWESSLGGGSGGSGG
# notes: as for B5
# B12: phage clone displaying SEQ ID NO: 21 (S15 hit) (peptide)
# chain: GGGLPDLICAVDSGTSGAGGGSGGSGG
# notes: as for B5
# B13: phage clone displaying SEQ ID NO: 17 (S15 hit) (peptide)
# chain: GGGPIDDESLPVLYCVTSGGGSGGSGG
# notes: as for B5
# B14: phage clone displaying SEQ ID NO: 18 (S15 hit) (peptide)
# chain: GGGPIFSSLPVLYCTSQLGGGSGGSGG
# notes: as for B5
# B15: phage clone displaying SEQ ID NO: 10 (S15 hit) (peptide)
# chain: GGGYRLFVDESIFFCTRLGGGSGGSGG
# notes: as for B5
# B16: phage clone displaying SEQ ID NO: 11 (S15 hit) (peptide)
# chain: GGGELGLPTLLCWPTDTLGGGSGGSGG
# notes: as for B5
# B17: phage clone P173 (SEQ ID NO: 31) (peptide)
# chain: GGGTDCVIFGLETYCLRGGGSGGSGG
# notes: pIX phagemid display, library S18; also called PP173; not shown: M13 phage coat protein pIX (MSVL...)
# B18: phage clone displaying SEQ ID NO: 27 (S18 hit) (peptide)
# chain: GGGDSCIQFANLLYCAIGGGSGGSGG
# notes: pIX phagemid display, library S18; not shown: M13 phage coat protein pIX (MSVL...)
# B19: phage clone displaying SEQ ID NO: 28 (S18 hit) (peptide)
# chain: GGGTDCIRFGVLWYCLVGGGSGGSGG
# notes: as for B18
# B20: phage clone displaying SEQ ID NO: 32 (S18 hit) (peptide)
# chain: GGGSDCVLFGSKLFCSAGGGSGGSGG
# notes: as for B18
# B21: phage clone displaying SEQ ID NO: 30 (S18 hit) (peptide)
# chain: GGGAYCSFVAGDLVCQVGGGSGGSGG
# notes: as for B18
# B22: phage clone displaying SEQ ID NO: 24 (S18 hit) (peptide)
# chain: GGGAKCIAFGNSVYCLNGGGSGGSGG
# notes: as for B18
# B23: phage clone displaying SEQ ID NO: 33 (S18 hit) (peptide)
# chain: GGGTDCVRFGETIYCIVGGGSGGSGG
# notes: as for B18
# B24: phage clone displaying SEQ ID NO: 29 (S18 hit) (peptide)
# chain: GGGRACITFGKVVYCEVGGGSGGSGG
# notes: as for B18
# B25: phage clone displaying SEQ ID NO: 34 (S18 hit) (peptide)
# chain: GGGYDCVSFGAVAYCPQGGGSGGSGG
# notes: as for B18
# B26: phage clone displaying SEQ ID NO: 26 (S18 hit) (peptide)
# chain: GGGKHCILFEKTVYCAKGGGSGGSGG
# notes: as for B18
# B27: phage clone displaying SEQ ID NO: 25 (S18 hit) (peptide)
# chain: GGGRDCIIFDKTVYCVIGGGSGGSGG
# notes: as for B18
# B28: phage clone displaying SEQ ID NO: 35 (S18 hit) (peptide)
# chain: GGGRGCVVFGDNIYCIVGGGSGGSGG
# notes: as for B18
# B29: phage clone displaying SEQ ID NO: 23 (S18 hit) (peptide)
# chain: GGGAGCIAFVDVVYCARGGGSGGSGG
# notes: as for B18
# B30: phage clone P180 (SEQ ID NO: 37) (peptide)
# chain: GGGMICYLVDSGNIICYKGGGSGGSGG
# notes: pIX phagemid display, library S19; also called PP180; not shown: M13 phage coat protein pIX (MSVL...)
# B31: phage clone P179 (SEQ ID NO: 39) (peptide)
# chain: GGGGPCVLIRDYYLLCLEGGGSGGSGG
# notes: pIX phagemid display, library S19; also called PP179; not shown: M13 phage coat protein pIX (MSVL...)
# B32: phage clone displaying SEQ ID NO: 38 (S19 hit) (peptide)
# chain: GGGYDCMIRADGSLICWCGGGSGGSGG
# notes: pIX phagemid display, library S19; not shown: M13 phage coat protein pIX (MSVL...)
# B33: phage clone displaying SEQ ID NO: 40 (S19 hit) (peptide)
# chain: GGGAFCRLDFNQWLTCLVGGGSGGSGG
# notes: as for B32
# B34: phage clone displaying SEQ ID NO: 41 (S19 hit) (peptide)
# chain: GGGCDCREAVSASLVCRYGGGSGGSGG
# notes: as for B32
# B35: phage clone displaying SEQ ID NO: 47 (S20 hit) (peptide)
# chain: GGGSVCVGTAFPGWMVCGPGGGSGGSGG
# notes: pIX phagemid display, library S20; not shown: M13 phage coat protein pIX (MSVL...)
# B36: phage clone displaying SEQ ID NO: 44 (S20 hit) (peptide)
# chain: GGGWMCFLEGYGASLMCQCGGGSGGSGG
# notes: as for B35
# B37: phage clone displaying SEQ ID NO: 46 (S20 hit) (peptide)
# chain: GGGYICTPSDIDSWYICYLGGGSGGSGG
# notes: as for B35
# B38: phage clone displaying SEQ ID NO: 49 (S20 hit) (peptide)
# chain: GGGLLCATTSFRDWFVCFTGGGSGGSGG
# notes: as for B35
# B39: phage clone displaying SEQ ID NO: 43 (S20 hit) (peptide)
# chain: GGGPTCDSATRRVLTICADGGGSGGSGG
# notes: as for B35
# B40: phage clone displaying SEQ ID NO: 45 (S20 hit) (peptide)
# chain: GGGDSCCSFLTDGTVVCSLGGGSGGSGG
# notes: as for B35
# B41: phage clone P178 (SEQ ID NO: 53) (peptide)
# chain: GGGRWCYFWWITICELGGGSGGSGG
# notes: pIX phagemid display, library S17; also called PP178; not shown: M13 phage coat protein pIX (MSVL...)
# B42: phage clone P174 (SEQ ID NO: 51) (peptide)
# chain: GGGSGCLDALWQCVYGGGSGGSGG
# notes: pIX phagemid display, library S16; also called PP174; not shown: M13 phage coat protein pIX (MSVL...)
# B43: phage clone P177 (SEQ ID NO: 52) (peptide)
# chain: GGGDACTMVFLWCSLGGGSGGSGG
# notes: pIX phagemid display, library S16; also called PP177; not shown: M13 phage coat protein pIX (MSVL...)
# Target: T1, human EGFR on tumor cells (human, UniProt P00533 25-1210)
# Experiment: cell-based or functional assay
Binder,"IC50 D4, cell killing of MDA-MB-468 cells (1 h treatment, 4 days)","IC50 D6, cell killing of MDA-MB-468 cells (1 h treatment, 6 days)"
B1,120 µg/mL,35 µg/mL

# Target: T1, human EGFR on tumor cells
# Experiment: flow cytometry on A431 cells, without EGF
row,Binder,fold increase in FACS signal
1,B2,~10 fold

# Target: T2, Control-MMB (CNTO 360) (Homo sapiens (Human), UniProt P0DOX5 111-449 = IgG part)
# T2 construct: MMB scaffold without a peptide; described as human IgG1 heavy chain dimer lacking the variable and most of the CH1 domains; also called blank mimetibody scaffold protein
# Experiment: phage ELISA, Control-MMB coated at 5 ug/ml
# Protocol: The plates were held overnight at room temperature, washed twice with TBST (0.5M Tris Base, 9% NaCl, 0.05% tween, pH 7.6), and loaded with 200 μL per well of Starting Block (Pierce). […] The plates were held at room temperature for 1.5 hours for blocking. Plates were then washed twice with TBST and phage were added. The phage solutions were crude phage supernatant from overnight cultures diluted four-fold with Starting Block. After a one-hour incubation, the plates were washed thrice with TBST and 100 μL of a 1:5000 dilution of phage binding antibody conjugate (α-M13-HRP) was added to the wells. […] After a one-hour incubation the plates were washed five times with TBST, 100 μL of POD (BM Chemiluminescence ELISA substrate; Roche Applied Science) was added, and chemiluminescene recorded.
row,Binder,binding result
1,B3,no binding

# Target: T2, Control-MMB (CNTO 360)
# Experiment: phage ELISA on coated Control-MMB in the presence of EGF [panel B]
# Protocol: (§1) The protein solution was removed and wells were rinsed twice with Tris-Buffered Saline containing 0.05% Tween-20 (TBS-T) using a plate washer (Embla). The wells were blocked with Starting Block in TBS for 1 hr at room temperature and rinsed twice with TBS-T. An equal volume of phage supernatant and Starting Block in TBS were incubated in the wells for 1 hr at room temperature, and the wells were rinsed five times with TBS-T. Anti-M13/horseradish peroxidase conjugate (Amersham), diluted 1:5000 in Starting Block in TBS, was added into the wells and incubated for 1 hour at room temperature, and then the wells were rinsed five times with TBS-T. Finally, chemiluminescent peroxidase substrate (Roche) was added to the wells, and chemiluminescence was measured on a Tecan plate reader.
# (§2) Confirmatory Phage ELISA. […] The binding reaction was incubated for 1 hr at room temperature, and then bound phage were detected with anti-M13/HRP as above. For ELISAs with biotinylated receptors, streptavidin at 5 μg/ml was coated in the wells overnight at 4° C. […] The wells were rinsed with TBS-T and then blocked with Starting Block. Bound phage were washed and detected with anti-M13/HRP as described above.
row,Binder,binding result
1,B4,no binding

# Target: T3, Streptavidin
# T3 construct: also called Streptavidin alone; SA
# Experiment: phage ELISA on streptavidin-coated wells without receptor [panel C]
# Protocol: as §1, §2
row,Binder,binding result
1,B4,no binding

# Target: T4, sEGFR-MMB (dimeric sEGFR mimetibody) (human)
# T4 construct: Disulfide-linked homodimer: QIQ, sEGFR, flexible linker, J segment, human IgG1 hinge, CH2, CH3; also called sEGFR-Fc; dimeric EGFR
# Experiment: phage ELISA on coated sEGFR-MMB, chemiluminescence (background typically <200 units)
# Protocol: as §1
# T4 sequence (chain, as listed by the source limits assumed): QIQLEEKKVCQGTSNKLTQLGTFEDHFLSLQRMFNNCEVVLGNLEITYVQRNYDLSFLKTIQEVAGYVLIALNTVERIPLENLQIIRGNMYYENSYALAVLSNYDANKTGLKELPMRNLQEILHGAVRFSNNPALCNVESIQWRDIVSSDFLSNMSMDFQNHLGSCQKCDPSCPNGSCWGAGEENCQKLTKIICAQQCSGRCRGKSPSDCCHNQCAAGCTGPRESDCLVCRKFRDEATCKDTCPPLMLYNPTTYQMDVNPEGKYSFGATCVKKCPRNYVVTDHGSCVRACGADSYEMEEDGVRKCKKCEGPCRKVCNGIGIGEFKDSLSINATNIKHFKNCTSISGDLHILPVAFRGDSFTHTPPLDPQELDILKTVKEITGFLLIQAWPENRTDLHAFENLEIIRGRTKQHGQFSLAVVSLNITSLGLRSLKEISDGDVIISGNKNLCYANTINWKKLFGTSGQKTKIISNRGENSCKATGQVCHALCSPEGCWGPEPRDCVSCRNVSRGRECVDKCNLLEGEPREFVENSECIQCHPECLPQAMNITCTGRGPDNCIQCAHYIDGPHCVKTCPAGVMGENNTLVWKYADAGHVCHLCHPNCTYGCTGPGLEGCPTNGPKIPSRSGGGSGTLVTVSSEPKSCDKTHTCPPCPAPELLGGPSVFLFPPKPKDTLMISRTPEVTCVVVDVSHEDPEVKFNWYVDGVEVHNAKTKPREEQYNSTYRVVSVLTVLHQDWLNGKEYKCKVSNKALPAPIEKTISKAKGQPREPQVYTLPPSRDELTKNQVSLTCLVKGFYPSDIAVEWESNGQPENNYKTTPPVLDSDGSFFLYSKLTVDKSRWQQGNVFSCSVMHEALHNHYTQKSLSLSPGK
row,Binder,ELISA
1,B5,13300 units
2,B6,6790 units
3,B7,3670 units
4,B8,1360 units
5,B9,1520 units
6,B10,1110 units
7,B11,5720 units
8,B12,1160 units
9,B13,1780 units
10,B14,1420 units
11,B15,3080 units
12,B16,9380 units

# Target: T4, sEGFR-MMB (dimeric sEGFR mimetibody)
# Experiment: as above
# Remark: another data set of the same source
# Protocol: as §1
row,Binder,ELISA
1,B17,37900 units
2,B18,53200 units
3,B19,4750 units
4,B20,35300 units
5,B21,19800 units
6,B22,31500 units
7,B23,13300 units
8,B24,30700 units
9,B25,3200 units
10,B26,9110 units
11,B27,17100 units
12,B28,22000 units
13,B29,6380 units

# Target: T4, sEGFR-MMB (dimeric sEGFR mimetibody)
# Experiment: as above
# Remark: another data set of the same source
# Protocol: as §1
row,Binder,ELISA
1,B30,8810 units
2,B31,14000 units
3,B32,1290 units
4,B33,2580 units
5,B34,3350 units

# Target: T4, sEGFR-MMB (dimeric sEGFR mimetibody)
# Experiment: as above
# Remark: another data set of the same source
# Protocol: as §1
row,Binder,ELISA
1,B4,37400 units
2,B35,4770 units
3,B36,4800 units
4,B37,6620 units
5,B38,4510 units
6,B39,5420 units
7,B40,9540 units

# Target: T4, sEGFR-MMB (dimeric sEGFR mimetibody)
# Experiment: as above
# Remark: another data set of the same source
# Protocol: as §1
row,Binder,ELISA
1,B41,7910 units
2,B42,34600 units
3,B43,8660 units
